Assay results as given in PMC5386136.

Legend:
[1] = molecular target: SHANK3 SPN(R12C)-ARR mutant (rat); experiment: ITC
[2] = molecular target: SHANK3 SPN-ARR (residues 1-348) (rat); experiment: ITC

Kd [1]: 2.2 µM | Kd [2]: 0.2 µM
Substance: Rap1b (residues 1-166) (from UniProt P61224 1-166) (natural protein)
